# Test results published in patent US20230039401A1, “COMPOSITIONS AND METHODS FOR TREATING NRP2-ASSOCIATED DISEASES” (aTyr Pharma, Inc., priority 2018, published 2023).
# B1: HRS(2-60)-COMP: pentamer of HRS(2-60): HARS aa 2-60 fused to COMP pentameric domain (aa 28-73); made His tagged; SEQ ID NO:175 without tags (protein)
# chain: ERAALEELVKLQGERVRGLKQQKASAELIEEEVAKLLKLKAQLGPDESKQKFVLKTPKGGGGSGGGGSSDLGPQMLRELQETNAALQDVRELLRQQVREITFLKNTVMECDAC
# modifications: His tag; Made in Lab - HRS-COMP Fusion Protein
# Tests used:
# [1] = system: LPS-induced leukocyte infiltration into the mouse lung; assay: Murine model of LPS-induced pulmonary inflammation; format: in vivo; conditions: single IV 3 mg/kg the day before LPS 10 μg/mouse; lavage 24 hours later
# Description: This study was designed to investigate the in vivo potential of test compounds in a murine model of neutrophil accumulation in the lung induced by airway instillation of lipopolysaccharide (LPS).
# Treatment Regimen. Sixty-four (64) C57BL/6 mice (Jackson Laboratory, Bar Harbor, Me., USA, 8 week old females) were assigned to study groups of 8 mice, and housed in specific pathogen-free conditions with sterile food and water.
# In brief, animals received a single intravenous injection of the vehicle of Fc-HRS(2-60) (20 mM Histidine/125 mM NaCl/10 mM Methionine/3% Sucrose/0.02% PS20, pH 6.9), Fc-HRS(2-60) (1, 3, or 10 mg/kg), or HRS(2-60)-COMP (3 mg/kg). The following day, mice were anesthetized by isoflurane inhalation and, using a gavage needle and attached syringe, 50 μL of LPS (Sigma L3024, E. coli 0111-B4, 10 μg/mouse) formulated in PBS, or PBS alone, was delivered to the back of the oral soft palate for inhalation. […]
# Flow Cytometry Analysis. […] NRP2 was detected by addition of 25 μL of rabbit anti-mouse NRP2 (Cell Signaling Technology) at 10 μg/mL in FWB for 1 h in the dark on ice, and cells were then washed (data not shown). […]
# Using GraphPad Prism 7, results were analyzed by one-way ANOVA followed by Dunn's multiple comparison test using the LPS/Vehicle group as the comparator. […]
# [2] = system: murine bone marrow derived macrophages; assay: Efferocytosis in bone marrow derived macrophages (pHrodo-loaded apoptotic jurkat cells); format: cell-based, mouse; conditions: 100 nM for 5 days during monocyte differentiation
# Description: This study was designed to investigate the in vivo potential of test compounds to modulate efferocytosis in murine bone marrow derived macrophages. Efferocytosis refers to the process by which dying/dead cells (e.g. apoptotic or necrotic cells) are removed by phagocytic cells. During efferocytosis, the cell membrane of phagocytic cells engulfs the apoptotic cell, forming a large fluid-filled vesicle containing the dead cell. Efferocytosis can be performed not only by ‘professional’ phagocytic cells such as macrophages or dendritic cells, but also by many other cell types including epithelial cells, fibroblasts and other cells. To distinguish them from living cells, apoptotic cells carry specific ‘eat me’ signals, such as the presence of phosphatidyl serine (resulting from phospholipid flip-flop) or calreticulin on the outer leaflet of the cell membrane. […] Like phagocytosis, acidification of the endosome, is a central aspect of endosome maturation, which can be readily monitored through the use of a pH sensitive probe, as described herein.
# Methods and protocol. […] Confocal images were captured in Zeiss 710 Confocal Laser Scanning Microscope equipped with 4 lasers and images were captured and analyzed using Zeiss Zen 2010 software. For quantification, the intensity of red fluorescence in each field were measured and the arithmetic mean was calculated and represented graphically.
molecule,measurement,setting,value
B1,number of airway neutrophils accumulating in response to LPS,[1],significantly reduced
same,efferocytosis (spectral shift of pH sensitive dye),[2],profound inhibition of efferocytosis
